Patent publication US20100004165A1, “Novel Protein Transduction Domains and Uses Therefor” (The Arizona Board of Regents, a body corporate acting on …, priority 2005, published 2010)
Where two headings read alike, the source gives them in different places. Square brackets hold non-standard residues; d marks the D form. Ends that are not written are not given here. * marks the point of attachment. FITC = O=C1OC2(c3ccc(O)cc3Oc3cc(O)ccc32)c2ccc(NC(=S)*)cc21; pS = N[C@@H](COP(=O)(O)O)C(=O)O; βAla = NCCC(=O)O

Tests used:
[1] = test system: 3T3 fibroblasts; test: Transduction of FITC-labeled peptides into 3T3 fibroblasts (fluorescence imaging); assay type: cell-based; settings: 50 μM, 1 hour, media with or without serum
Experimental: FITC-(b)[…] (SEQ ID NO: 37)(WLRRIKA (SEQ ID NO: 3) monomer), FITC-(b)[…] (SEQ ID NO: 38)(WLRRIKA (SEQ ID NO: 3) dimer), and FITC-(b)[…] (SEQ ID NO: 39)(WLRRIKA (SEQ ID NO: 3) trimer) were synthesized on a 0.2 mmol scale using Fmoc-based solid phase peptide synthesis. The peptides were solubilized in water to create 3 mM stock solutions. 3T3 fibroblasts, cultured in Dulbecco's Modified Eagle Medium (DMEM) with 2 mM glutamine, pen/strep antibiotic, and 10% fetal bovine serum (FBS), were seeded at a density of 50,000 cells per well (1 ml of 50,000 cells/ml) in 4-well chambered slides (4 slides were used). The slides were incubated at 37° C. with 5% CO2 in a humidified incubator for 4 hours to allow the cells to adhere to the slides. After 4 hours, each well was washed 3 times with phosphate buffered saline (PBS). 50 μl of a 3 mM stock of each peptide as well as a 3 mM stock of fluorescein in water were added to 15 ml tubes containing 3 ml of DMEM with 2 mM glutamine, antibiotic, and 10% FBS and to 15 ml tubes containing 3 ml of serum-free DMEM with 2 mM glutamine and antibiotic. Treatments were performed in duplicate for both serum-containing and serum-free DMEM. On each slide system, each well received media (either with or without serum) with fluorescein, WLRRIKA (SEQ ID NO: 3) monomer, WLRRIKA (SEQ ID NO: 3) dimer, or WLRRIKA (SEQ ID NO: 3) trimer. In all cases, the final peptide or fluorescein concentration was 50 μM per well. Once the treatments were added, the slides were incubated at 37° C. with 5% CO2 in a humidified incubator for 1 hour. Then, each well was washed with PBS 3 times. Following the PBS wash, 0.2 ml trypsin was added to each well to digest residual peptide bound to the outer cellular membranes, and the slides were incubated at 37° C. for 10 minutes. To inactivate the trypsin, 1 ml DMEM with serum was added to each well, and the slides were incubated for 4 hours to allow cells to reattach to the slides. After 4 hours, the cells were washed 3 times in PBS, and 1 ml of DMEM with serum was added to each well. Then, the slides were imaged using a 40× objective. […]

[2] = test system: primary rat astrocyte cells; test: Transduction across cell membranes in primary rat astrocyte cells; assay type: cell-based
Experimental: The in vitro model used to assess transduction across cell membranes was primary rat astrocyte cells. Cells were isolated as described (Innocenti et. al., J. Neurosci. 20:1800-1808, 2000), seeded at ˜3×10^4 cells/cm^2, and cultured in full serum (10% FBS in α-MEM) overnight. Some cells were serum starved by culturing in 0.5% FBS for 1-24 hours prior to treatment with transduction peptides.

[3] = test system: porcine ear skin; test: Ex vivo skin transduction, porcine ear skin in modified Franz diffusion cell (Example 2); assay type: in vitro ADME; settings: for skin penetration: 100 uM, conjugated or alone (FIG. 1, Panel C)
Experimental: The ex vivo model selected for skin transduction studies was freshly excised porcine ears. […] The system was maintained at 37° C. and under constant stirring. […] The amount of peptides that permeated across the skin was determined in the receptor phase; 1.5 mL of the receptor phase was withdrawn, lyophilized and the residue was suspended in 150 μL of water. […] Standard curves of the peptides were used as reference.

[4] = test system: porcine ear skin; test: Fluorescence microscopy of skin sections after peptide application
Source text: The skin sections (8 μm) were mounted on glass slides. The slides were visualized without any additional staining or treatment through a 20× objective using a Zeiss microscope (Carl Zeiss, Thornwood, N.Y., USA) equipped with a filter for FITC and AxioVision software.

[5] = test system: porcine ear skin; test: In vitro skin penetration and transdermal delivery, porcine ear skin in Franz diffusion cell, spectrofluorimetry (Example 3); settings: for penetration in both SC and [E+D] compared with nonconjugated P20: all time points studied (0.5-8 h), p<0.05; for transdermal delivery: amount in the receptor phase: detected only at 8 hours post-application; for course of concentration in [E+D]: from 0.5 to 4 hours post-application, no further increase between 4 and 8 hours; for time of maximal rate of penetration in the whole skin (SC+[E+D]): post-application
Experimental: Fluorescence microscopy was used to visualize the peptides in different skin layers.
Formulations: Except in the experiments involving chemical penetration enhancers, FITC-labeled peptides were dissolved in phosphate-buffered saline (PBS, 10 mM, pH 7.2); the peptide concentration was 100 μM. In the experiment involving penetration enhancers, PBS could not be used as a solvent because of the lipophilic nature of monoolein and oleic acid. Propylene glycol was used as a solvent, since it solubilizes both lipids and peptides. […] The formulations were prepared by mixing monoolein or oleic acid with propylene glycol and adding the peptides to the system immediately thereafter.
Porcine ear skin was used as model skin for in vitro skin penetration studies because of its similarity with human skin, especially regarding histological and biochemical properties and permeability to drugs (33). Freshly excised porcine ears were obtained from a local abattoir. The skin from the outer surface of the ear was carefully dissected; making sure that the subcutaneous fat was maximally removed (34). Maximum care was taken to maintain the integrity of the skin, which was assured by histology. The cleaned porcine ear skin was immediately mounted in a Franz diffusion cell (diffusion area of 1 cm^2; Laboratory Glass Apparatus, Inc, Berkeley, Calif., USA), with the stratum corneum facing the donor compartment (where the formulation was applied) and the dermis facing the receptor compartment, which was filled with PBS (100 mM, pH 7.2, 3 mL). The receptor phase was maintained at 37° C. and under constant stirring. To achieve higher reproducibility, the skin samples were equilibrated to the diffusion cell conditions for 30 minutes before application of any formulation.
PBS solutions or propylene glycol formulations of the peptides (70 μL each) were applied to the skin surface (donor compartment). […] The concentrations of FITC-P20 (SEQ ID NO: 9), FITC-YARA-P20 (SEQ ID NO: 42), and FITC-TAT-P20 (SEQ ID NO: 43) in the skin and receptor phase were determined at 0.5, 1, 2, 4, and 8 hour post-application.
At the end of the experiment, skin surfaces were thoroughly washed with distilled water to remove excess formulation and carefully wiped with a tissue paper. To separate the stratum corneum (SC) from the remaining epidermis (E) and dermis (D), the skin was subjected to tape stripping. The skin was stripped with 15 pieces of adhesive tape (3M, St. Paul, Minn., USA), and the tapes containing the SC were immersed in 3 mL of a water:methanol (1:1 v/v) solution, vortexed for 2 min, and bath sonicated for 30 minutes. The remaining [E+D] was cut in small pieces, vortexed for 2 minutes in 2 mL of a water:methanol (1:1 v/v) solution, and homogenized using a tissue grinder for 1 minute and bath sonication for 30 minutes. The resulting mixture was centrifuged for 1 minute. The peptide present in the receptor phase was concentrated (10×) as follows. Samples (2 mL) of the receptor phase were lyophilized for 24 hours, and the residue was dissolved in 200 μL of a hidroalcoholic (20% of ethanol) solution.
All solutions were subjected to fluorimetry analysis using a Gemini SpectraMax™ platereader (Molecular Devices, Sunnyvale, Calif., USA) with excitation at 495 nm and emission at 518 nm. […] To evaluate the recovery of the peptides from the skin in the extraction procedure, tissues sections (1 cm^2) were spiked with 20 μL of 0.2 and 0.5 mM solutions of the peptides. The skin sections were homogenized using a tissue grinder, vortex-mixer, and bath sonicator, as described above. […] We accounted for such a recovery percentage in the quantification of peptides.

[6] = test system: Rat aorta; test: Vasorelaxation of rat aorta rings pre-contracted with KCl (muscle bath)
Experimental: Rat aorta was isolated and dissected free from connective and fat tissue. Transverse rings, 3.0 mm in width, were cut and tied to silk suture. The tissue was suspended in a muscle bath containing a bicarbonate buffer (120 mM NaCl, 4.7 mM KCl, 1.0 mM MgSO4, 1.0 mM NaH2PO4, 10 mM glucose, 1.5 mM CaCl2, and 25 mM […], pH 7.4) and equilibrated with 95% O2/5% CO2 at 37° C. The rings were fixed at one end to a stainless steel wire and attached to a force transducer in muscle perfusion system (Radnotti). The rings were then progressively stretched, and the isometric force generated in response to 110 mM KCl (with equimolar replacement of NaCl in bicarbonate buffer) was determined until the consistent maximal force was produced. Agonists and peptide was added directly to the baths. Tissue that was pre-contracted with 110 mM potassium chloride (KCl) followed by 1.0 mM WL-P20 ([…]p[…], pS is phosphoserine) (SEQ ID NO: 10), where pS is phosphoserine) relaxed compared to untreated control (13% relaxation at 10 minutes, 50% relaxation at 30 minutes, and maximum 88% relaxation at ˜60 minutes, FIG. 4). Percent relaxation was calculated relative to maximum force generated with KCl. […] Such a difference may result from different mechanisms of penetration and/or intracellular localization.

[7] = PBS vehicle, 4 hours post-application

## FITC-(b)AWLRRIKA ({FITC}-[βAla]WLRRIKA) [WLRRIKA monomer]
[1]
  fluorescence within the cells (ability to penetrate the cells): not able to penetrate the cells

## FITC-(b)AWLRRIKAWLRRIKA [WLRRIKA dimer]
[1]
  fluorescence within the cells (ability to penetrate the cells): bright fluorescence within the cells

## WLRRIKAWLRRIKAWLRRIKA [W3]
[1]
  fluorescence within the cells (ability to penetrate the cells): bright fluorescence within the cells
[2]; 50 μM
  transduction: efficient transduction
[2]; 50 μM for 1 h
  persistence of transduction: at least 24 hours
[3]; 100 uM transduction domain, non-covalently bound (FIG. 1, Panel A)
  carrying of non-covalently bound P20 across the skin: did not carry P20
[3]
  skin penetration: significantly enhanced
[3]; 1 mM W3 used to carry P20 (FIG. 1, Panel B)
  skin penetration [E+D] of non-covalently bound P20: significant skin penetration

## WL-scrP20: control, the pseudo-monomer WLRRIKA-(WL-scrP20)
[2]; 1 μM
  transduction: no transduction was observed
[2]; 25 μM
  transduction: no transduction was observed
[2]; 50 μM
  transduction: no transduction was observed

## YARAAARQARAWLRRASAPLPGLK (YARAAARQARAWLRRA[pS]APLPGLK; also: FITC label) [YARA-P20]
[4]; 4 hours post-application
  localisation of fluorescence in skin layers: strong fluorescence in the SC and viable epidermis
[5]
  penetration in both SC and [E+D] compared with nonconjugated P20: significantly higher
  transdermal delivery: amount in the receptor phase: 0.031 ± 0.011 nmol
  course of concentration in [E+D]: progressively increased
  time of maximal rate of penetration in the whole skin (SC+[E+D]): 1 h
[3]
  skin penetration: significantly enhanced
[6]
  time of maximum relaxation: 5 to 10 min

## YARAAARQARA
[4]
  localisation of fluorescence in skin layers: strong fluorescent staining of SC and viable epidermis
[5]
  amount penetrated into the skin (SC+[E+D]) relative to amount that permeated across the skin: 34 times
  effect of monoolein or oleic acid on topical or transdermal delivery: failed to further increase
  influence of propylene glycol on skin penetration compared to PBS: did not influence
  penetration in the SC and [E+D] relative to the control peptide FITC-YKAc: 8-10 times
  transdermal delivery: amount found in the receptor phase: 0.053 ± 0.009 nmol

## YGRKKRRQRRRWLRRASAPLPGLK [TAT-P20]
[4]; 4 hours post-application
  localisation of fluorescence in skin layers: strong fluorescence in the SC and viable epidermis
[5]
  penetration in both SC and [E+D] compared with nonconjugated P20: significantly higher
  transdermal delivery: amount in the receptor phase: 0.027 ± 0.009 nmol
  course of concentration in [E+D]: progressively increased
  time of maximal rate of penetration in the whole skin (SC+[E+D]): 1 h

## YGRKKRRQRRR [TAT]
[4]; 4 hours post-application
  localisation of fluorescence in skin layers: strong fluorescent staining of SC and viable epidermis
[5]; 4 hours post-application
  influence of propylene glycol on skin penetration compared to PBS: did not influence
[5]; [7]
  amount penetrated into the skin (SC+[E+D]) relative to amount that permeated across the skin: 30 times
  transdermal delivery: amount found in the receptor phase: 0.058 ± 0.008 nmol
[5]; propylene glycol, monoolein 10% w/w or oleic acid 5% w/w, 4 h
  effect of monoolein or oleic acid on topical or transdermal delivery: failed to further increase
